Results from publication PMC2699158.

Target: taxol-stabilized microtubules
Assay: co-sedimentation

- Kd: < 300 nM
Substance: 6×His-CLASP2(340–650), wild type (from UniProt O75122-3 340-650) (domain or fragment)
